How the values were obtained:
[1] = target: T1, SARS-CoV-2 full length spike protein (wild type) (SARS-CoV-2, UniProt P0DTC2 14-1208); experiment: multiplexed bead assay, flow cytometry; columns A, B, D, G, H, I
T1 construct: also called SARS-CoV-2 spike; S protein

[2] = target: T2, SARS-CoV-2 spike (S) protein, full length, wild type (SARS-CoV-2, UniProt P0DTC2 14-1208); experiment: multiplexed bead assay, flow cytometry
T2 construct: also called SARS-CoV-2 full length spike; full-length trimeric SARS-CoV-2 spike protein

Row | Binder | binding result [1] | binding result [2]
1 | antibody 341 (antibody, V domains shown) VH: QLQLQESGPGLVKPSETLSLTCTVSGGSISSSSYYWGWIRQPPGKGLEWIGSIYYSGSTYYNPSLKSRVTISVDTSKNQFSLKLSSVTAADTAVYYCARRPLRYFDWLTNFDYWGQGTLVTVSS VL: EIVLTQSPATLSLSPGERATLSCRASQSVSSYLAWYQQKPGQAPRLLIYDASNRATGIPARFSGSGSGTDFTLTISSLEPEDFAVYYCQQRSNWPITFGQGTRLEIK | no binding | –
2 | anti-SARS-CoV-2 antibody 474 (antibody, V domains shown) VH: EVQLVESGGGLVQPGGSLRLSCAASGFTFSSYWMHWVRQAPGKGLVWVSRINSDGSSTSYADSVKGRFTISRDNAKNTLYRQMNSLRAEDTAVYYCALGPLDIVGSYYYYGMDVWGQGTTVTVSS VL: NFMLTQPHSVSESPGKTVTISCTGSSGSIASNYVQWYQQRPGSAPTTVIYEDNQRPSGVPDRFSGSIDSSSNSASLTISGLKTEDEADYYCQSYDSSNQDVVFGGGTKLTVL | – | no binding
